How the values were obtained:
[1] = molecular target: T1, human alpha-thrombin (human, UniProt P00734;P00734 328-363;364-622); test: BLI; kon 3.9e7 M-1s-1, koff 2.1e-3 s-1; DAB moiety binds active site; not given in the material (Methods for BLI and fluorogenic assay are headings only)
[2] = molecular target: T1, human alpha-thrombin; test: BLI; not given in the material (Methods for BLI and fluorogenic assay are headings only)
[3] = molecular target: thrombin S195A (UniProt P00734;P00734 315-363;364-622, S568A); test: X-ray crystallography; 2.2 A; Na+; DAB in S1 pocket, aptamer at exosite 2; not given in the material (Methods for BLI and fluorogenic assay are headings only)
[4] = molecular target: T1, human alpha-thrombin; test: inhibition of fluorogenic peptide cleavage; DAB moiety contributes; max inhibition >99%; not given in the material (Methods for BLI and fluorogenic assay are headings only)
[5] = molecular target: T1, human alpha-thrombin; test: inhibition of fluorogenic peptide cleavage; maximum inhibition 30%; not given in the material (Methods for BLI and fluorogenic assay are headings only)
[6] = molecular target: T1, human alpha-thrombin; test: inhibition of fluorogenic peptide cleavage; maximum inhibition 55%; not given in the material (Methods for BLI and fluorogenic assay are headings only)

With AAAAAAAAGTCCGTGGTAGGGCAGGTTGGGGTGACT (structured_DNA, 5' C6-dabigatran) [Bio-HD22-7A-DAB] the Kd [1] was 0.054 nM.

AAAAAAAAGTCCGTAATAAAGCAGGTTAAAATGACT (ssDNA, 5' C6-amine) [Bio-HD23-7A-NH2]: no binding [2].

In the case of AAAAAAAAGTCCGTGGTAGGGCAGGTTGGGGTGACT (structured_DNA, 5' C6-dabigatran) [HD22-7A-DAB], the binding result [3] is reported as “binds” and the IC50 [4] is reported as 0.1 nM.

AGTCCGTGGTAGGGCAGGTTGGGGTGACT (structured_DNA) [HD22] showed an IC50 [5] of 0.95 nM.

AGTCCGTGGTAGGGCAGGTTGGGGTGACT (structured_DNA, 5' C6-dabigatran) [HD22-0A-DAB] was tested, and the IC50 [6] was 0.55 nM.
